Assays:
[1] = target: T1, human cKIT (Homo sapiens, UniProt P10721); experiment: SPR (Biacore) affinity measurement; assay type: binding; settings: 25° C., 1:1 model
T1 construct: Human cKIT tr. variant 2 , residues 26-520-TAG; made in house; host or cells: HEK293 derived cell line 293FS, transient transfection
Protocol: (§1) Affinity of the antibodies to cKIT species orthologues and also to cKIT was determined using SPR technology using a Biacore® 2000 instrument (GE Healthcare, Pittsburgh, PA) and with CM5 sensor chips.
(§2) Briefly, HBS-P (0.01 M HEPES, pH 7.4, 0.15 M NaCl, 0.005% Surfactant P20) supplemented with 2% Odyssey® blocking buffer (Li-Cor Biosciences, Lincoln, NE) was used as the running buffer for all the experiments. The immobilization level and analyte interactions were measured by response unit (RU). Pilot experiments were performed to test and confirm the feasibility of the immobilization of the anti-human Fc antibody (Catalog number BR100839, GE Healthcare, Pittsburgh, PA) and the capture of the test antibodies.
(§3) For kinetic measurements, the experiments were performed in which the antibodies were captured to the sensor chip surface via the immobilized anti-human Fc antibody and the ability of the cKIT proteins to bind in free solution was determined. Briefly, 25 μg/ml of anti-human Fc antibody at pH 5 was immobilized on a CM5 sensor chip through amine coupling at flow rate of 5 μl/minute on all two flow cells to reach 10,500 RUs. 0.1-1 μg/ml of test antibodies were then injected at 10 μl/min for 1 minute. Captured levels of the antibodies were generally kept below 200 RUs. Subsequently, 3.125 −50 nM of cKIT receptor extracellular domains (ECD) were diluted in a 2-fold series and injected at a flow rate of 40 μl/min for 3 min over both reference and test flow cells. Table of tested ECDs is listed below (Table 6). Dissociation of the binding was followed for 10 min. After each injection cycle, the chip surface was regenerated with 3 M MgCl2 at 10 μl/min for 30 seconds.

[2] = target: T2, mouse cKIT (Mus musculus, UniProt P05532); experiment: SPR (Biacore) affinity measurement; assay type: binding; settings: 25° C., 1:1 model
T2 construct: cKIT receptor extracellular domains (ECD) were diluted in a 2-fold series
T2 sequence (P05532 25-527 limits assumed): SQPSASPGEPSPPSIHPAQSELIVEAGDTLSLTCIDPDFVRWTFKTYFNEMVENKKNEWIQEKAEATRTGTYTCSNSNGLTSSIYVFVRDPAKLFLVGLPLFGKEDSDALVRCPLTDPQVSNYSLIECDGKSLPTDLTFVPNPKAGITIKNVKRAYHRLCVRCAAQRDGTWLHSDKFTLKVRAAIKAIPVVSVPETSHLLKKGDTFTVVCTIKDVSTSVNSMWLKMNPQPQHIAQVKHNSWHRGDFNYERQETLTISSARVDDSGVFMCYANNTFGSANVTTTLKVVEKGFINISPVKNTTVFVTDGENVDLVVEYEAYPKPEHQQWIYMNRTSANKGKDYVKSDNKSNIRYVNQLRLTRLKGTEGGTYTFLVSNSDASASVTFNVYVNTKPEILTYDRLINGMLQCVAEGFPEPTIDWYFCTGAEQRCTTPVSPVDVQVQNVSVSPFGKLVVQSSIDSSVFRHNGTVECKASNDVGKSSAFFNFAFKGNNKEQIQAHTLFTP
Protocol: as §1, §2, §3

[3] = target: rat cKIT; experiment: SPR (Biacore) affinity measurement; assay type: binding; settings: 25° C., 1:1 model
Chain of rat cKIT (as listed by the source): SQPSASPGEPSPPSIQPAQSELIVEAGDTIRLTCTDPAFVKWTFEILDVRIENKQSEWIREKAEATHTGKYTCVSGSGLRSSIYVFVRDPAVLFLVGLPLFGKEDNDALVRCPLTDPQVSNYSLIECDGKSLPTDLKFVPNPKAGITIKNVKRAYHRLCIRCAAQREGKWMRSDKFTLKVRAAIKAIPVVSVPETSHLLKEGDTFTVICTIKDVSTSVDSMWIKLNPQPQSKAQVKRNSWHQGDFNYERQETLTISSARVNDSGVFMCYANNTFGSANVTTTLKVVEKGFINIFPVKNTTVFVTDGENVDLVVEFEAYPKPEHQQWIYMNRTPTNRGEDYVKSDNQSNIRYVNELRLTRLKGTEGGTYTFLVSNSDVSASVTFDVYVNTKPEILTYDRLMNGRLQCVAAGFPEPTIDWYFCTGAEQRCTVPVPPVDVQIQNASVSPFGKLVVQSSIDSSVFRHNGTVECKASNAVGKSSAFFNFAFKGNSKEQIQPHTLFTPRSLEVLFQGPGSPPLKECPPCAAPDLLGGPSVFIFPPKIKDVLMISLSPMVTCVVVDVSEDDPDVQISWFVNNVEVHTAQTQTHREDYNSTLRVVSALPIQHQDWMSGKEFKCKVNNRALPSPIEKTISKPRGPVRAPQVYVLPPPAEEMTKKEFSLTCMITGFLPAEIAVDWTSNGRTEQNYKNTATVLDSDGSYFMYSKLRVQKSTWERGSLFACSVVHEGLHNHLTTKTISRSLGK
Protocol: as §1, §2, §3

[4] = target: T3, Human cKIT D1-D3 ECD (Homo sapiens, UniProt P10721, N130S/N145S); experiment: crystal structure of cKIT ECD/NEG085 Fab complex
T3 construct: protein was made with residues Q26-G311; made in house
T3 sequence (P10721 26-311 N130S/N145S limits assumed): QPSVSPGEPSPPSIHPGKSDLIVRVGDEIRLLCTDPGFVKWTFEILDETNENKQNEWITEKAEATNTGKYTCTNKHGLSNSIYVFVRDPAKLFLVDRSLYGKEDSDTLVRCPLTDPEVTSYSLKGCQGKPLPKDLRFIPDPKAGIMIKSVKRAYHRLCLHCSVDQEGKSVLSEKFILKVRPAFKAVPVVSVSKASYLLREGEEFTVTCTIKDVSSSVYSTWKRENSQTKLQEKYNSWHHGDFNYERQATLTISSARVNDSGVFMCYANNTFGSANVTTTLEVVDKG
Protocol: Human cKIT (accession code NM_000222 domain 1 (D1)-domain 3 (D3) extracellular domain (ECD) protein was made with residues Q26-G311 ([…], N145S- these changes results in glycosylation deficiency, in order to express the protein in a glycan free form). Equal molar ratios of human cKIT D1-D3 ECD and NEG085 Fab were mixed and subjected to a final gel filtration step equilibrated with 20 mM Tris-HCl pH 7.5 and 100 mM NaCl, and concentrated to 20 mg/ml. Trypsin was added to the protein complex crystallization sample to create a 1:100 w/w dilution. The protease/sample mixture was incubated at room temperature for 30 minutes before setting up the crystallization experiment.
Diffracting crystals of the cKIT ECD/NEG085 Fab complex were obtained directly from Protein Complex Suite F5 (0.1M NaCl, 0.1M Tris pH 8.0, 8% PEG 20 k; Qiagen) at 4° C. and, after minor optimization, led to crystals diffracting to 5 Å in-house. […]
Data were collected on a single crystal cooled to 100K using an ADSC QUANTUM 315 detector (ADSC, Poway CA) and synchrotron radiation (λ=1.0000 Å) at the beam line 5.0.2 of the Advanced Light Source. […] The crystal contains four copies of the cKIT ECD/NEG085 Fab complex in the asymmetric unit with a calculated solvent content of 66%. […]

T1 sequence (P10721 with tags, fused parts or gaps isoform P10721-2): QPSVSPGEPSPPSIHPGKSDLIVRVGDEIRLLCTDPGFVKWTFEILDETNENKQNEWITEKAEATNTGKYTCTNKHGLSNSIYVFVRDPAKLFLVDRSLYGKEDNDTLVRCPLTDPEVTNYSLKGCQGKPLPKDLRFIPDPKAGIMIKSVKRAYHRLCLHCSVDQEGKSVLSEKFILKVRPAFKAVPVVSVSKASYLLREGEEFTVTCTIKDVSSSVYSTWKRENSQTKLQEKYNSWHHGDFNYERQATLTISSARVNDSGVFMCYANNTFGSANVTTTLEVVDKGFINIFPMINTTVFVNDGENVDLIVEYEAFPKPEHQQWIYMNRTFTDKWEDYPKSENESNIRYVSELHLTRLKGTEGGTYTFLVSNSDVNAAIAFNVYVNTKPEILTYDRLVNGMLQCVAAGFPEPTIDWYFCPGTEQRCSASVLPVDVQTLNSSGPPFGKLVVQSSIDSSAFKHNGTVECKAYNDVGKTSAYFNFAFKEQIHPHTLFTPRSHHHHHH

B1: NEG085: anti-cKIT antibody of Table 3, VH SEQ ID NO 82, VL SEQ ID NO 91 (antibody, listed as Homo sapiens, V domains shown)
VH: EVQLVESGGGLVQPGGSLRLSCAASGFAFSGYYMAWVRQAPGKGLEWVANINYPGSSTYYLDSVKGRFTISRDNAKNSLYLQMNSLRAEDTAVYYCARGDYYGTTYWYFDVWGQGTTVTVSS
VL: DIQMTQSPSSLSASVGDRVTITCRASQSISSYLNWYQQKPGKAPKLLIYYTSRLQSGVPSRFSGSGSGTDFTLTISSLQPEDFATYYCQQGRRLWSFGGGTKVEIK
Affinity human cKIT (nM) [1]: nanomolar level
Affinity mouse cKIT (nM) [2]: Not reactive
Affinity to rat cKIT (nM) [3]: Not reactive
competition with SCF for binding to cKIT (superposition of structures) [4]: appear to not compete
solvent-accessible surface area buried by NEG085/cKIT interface ([4]; total, H and L chain): ~1890 Å2
